We go through ten molecules from patent US20030022283A1 (published 2003).

Several values for one entry are separate records, joined by “and”; a condition that tells them apart may be missing. Identical values can stand only once.

For assay [1], the target named is T1, Rat NPY Y5 receptor, Y861 clone (rat, UniProt Q63634 1-445).
T1 sequence: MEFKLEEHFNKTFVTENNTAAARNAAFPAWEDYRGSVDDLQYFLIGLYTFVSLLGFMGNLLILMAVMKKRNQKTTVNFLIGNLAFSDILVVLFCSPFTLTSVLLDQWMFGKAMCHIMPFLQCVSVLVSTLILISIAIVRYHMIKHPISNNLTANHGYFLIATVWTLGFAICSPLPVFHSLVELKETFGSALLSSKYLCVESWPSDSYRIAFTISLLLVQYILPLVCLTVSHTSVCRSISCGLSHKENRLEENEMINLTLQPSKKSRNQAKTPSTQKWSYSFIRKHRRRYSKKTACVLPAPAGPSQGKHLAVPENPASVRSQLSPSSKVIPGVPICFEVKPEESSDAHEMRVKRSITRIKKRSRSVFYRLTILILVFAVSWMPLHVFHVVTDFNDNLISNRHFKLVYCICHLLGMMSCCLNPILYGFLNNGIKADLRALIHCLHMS
Put plainly: competition with [125I]PYY, membranes of stably transfected 293S cells.

Assay [2] addresses T1, Rat NPY Y5 receptor, Y861 clone. Put plainly: competition with [125I]PYY, membranes of transiently transfected COS-7 cells, one of the two experiments averaged.
Assay [3] shares this target. Put plainly: competition with [125I]PYY, membranes of transiently transfected COS-7 cells, average of two experiments.
In assay [4] the target is Y5 receptor (clone not specified), transiently expressed in COS-7 cells. Put plainly: saturation binding, membranes of transiently transfected cells, nonlinear regression.
Assay [5] has as its target T1, Rat NPY Y5 receptor, Y861 clone. The experiment in a line: competition with [125I]PYY, membranes of transiently transfected COS-7 cells.
In assay [6] the target is Human NPY Y5 receptor (human) (UniProt Q15761). Put plainly: competition with [125I]PYY, membranes of transiently transfected cells, one of the two experiments averaged.
The target in assay [7] is T1, Rat NPY Y5 receptor, Y861 clone. Put plainly: competition with [125I]PYY, rat Y5 Y861 clone.
For assay [8], the target named is T2, Rat Y4/PP1 receptor (clone) (rat, UniProt Q63447 1-375).
T2 construct: also called Rat Y4/PP1 (clone)
The experiment in a line: competition with rat [125I]PP, rat Y4/PP1 clone.

Assay [9] concerns the target Rat NPY Y5 receptor, 6B clone (Y217.24.13.6B) (rat) (UniProt Q63634). The experiment in a line: competition with [125I]PYY, membranes of transiently transfected COS-7 cells, one of the two experiments averaged.
Assay [10] has as its target Rat NPY Y5 receptor, Y555 clone (rat) (UniProt Q63634). Described as above.
For assay [11] the target is unchanged. The experiment in a line: competition with [125I]PYY, membranes of transiently transfected COS-7 cells, average of two experiments.
In assay [12] the target is T1, Rat NPY Y5 receptor, Y861 clone. Put plainly: cell-based or functional assay.
Assay [13] has as its target T3, Human NPY Y5 receptor (human, UniProt Q15761 1-445).
T3 construct: also called HUMAN Clone; human Y5
T3 sequence: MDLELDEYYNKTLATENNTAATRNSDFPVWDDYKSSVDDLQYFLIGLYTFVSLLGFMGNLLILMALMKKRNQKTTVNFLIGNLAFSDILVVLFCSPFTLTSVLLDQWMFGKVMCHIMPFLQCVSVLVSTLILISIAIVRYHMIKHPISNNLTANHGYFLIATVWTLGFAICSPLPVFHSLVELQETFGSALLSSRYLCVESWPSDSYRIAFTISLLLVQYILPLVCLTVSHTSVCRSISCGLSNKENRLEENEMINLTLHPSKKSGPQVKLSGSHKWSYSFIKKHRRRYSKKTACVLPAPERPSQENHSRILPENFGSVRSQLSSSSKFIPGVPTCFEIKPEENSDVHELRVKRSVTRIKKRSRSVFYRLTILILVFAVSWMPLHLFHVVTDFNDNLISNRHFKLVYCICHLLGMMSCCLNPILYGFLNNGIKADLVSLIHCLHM
Put plainly: competition with [125I]PYY, membranes of transiently transfected cells, average of two experiments.

Assay [14] concerns the target T3, Human NPY Y5 receptor. Put plainly: competition with [125I]PYY, membranes of transiently transfected cells, one of the two experiments averaged.
Assay [15] addresses T4, Rat NPY Y5 receptor, 6B clone (Y217.24.13.6B) (rat, UniProt Q63634 1-445).
T4 construct: 445 amino acid protein; assayed as membranes of transiently transfected COS-7 cells; Has proline where Y555/Y589/Y861 have leucine in the first transmembrane domain; also called RAT 6B Clone; Y5 clone
T4 sequence: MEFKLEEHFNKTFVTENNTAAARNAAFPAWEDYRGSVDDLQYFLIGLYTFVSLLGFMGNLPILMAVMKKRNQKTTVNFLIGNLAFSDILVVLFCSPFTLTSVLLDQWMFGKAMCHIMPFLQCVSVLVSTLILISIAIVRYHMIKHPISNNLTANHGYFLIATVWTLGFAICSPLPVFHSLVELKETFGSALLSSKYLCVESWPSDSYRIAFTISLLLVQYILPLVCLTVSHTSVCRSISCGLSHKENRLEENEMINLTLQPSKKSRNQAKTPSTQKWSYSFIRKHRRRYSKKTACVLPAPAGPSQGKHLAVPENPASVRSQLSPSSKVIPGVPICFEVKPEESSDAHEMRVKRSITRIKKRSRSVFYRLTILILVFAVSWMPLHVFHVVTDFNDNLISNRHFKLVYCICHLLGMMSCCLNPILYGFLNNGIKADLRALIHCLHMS
Put plainly: competition with [125I]PYY, membranes of transiently transfected COS-7 cells.
Experimental: The binding assays were performed on GF/C Millipore (Bedford, Mass.) 96-well plates pretreated with 0.02% polyethylenimine (PEI) for at least 2 hours prior to use. The PEI was aspirated from the plates on a vacuum manifold immediately before the samples were added to the wells. All peptides, tissue and radioligand were diluted with binding buffer (25 mM Tris, 120 mM NaCl, 5 mM KCl, 1.2 mM KH₂PO₄, 2.5 mM CaCl₂, 1.2 mM MgSO₄, 0.1% BSA and 0.5 mg/ml bacitracin, pH 7.4).
Each point is the average value of triplicate determinations from a representative experiment. […] Kᵢ values were calculated from the IC₅₀ values using the Cheng-Prusoff correction, such that Kᵢ=IC₅₀/(1±(L/Kd)), where L is the radioligand concentration and Kd is the dissociation constant.

The target of assay [16] is T3, Human NPY Y5 receptor. Put plainly: cell-based or functional assay.
Assay [17] concerns the target T3, Human NPY Y5 receptor. Put plainly: competition with [125I]PYY, membranes of stably transfected 293 cells.

T2 sequence (Q63447 whole entry): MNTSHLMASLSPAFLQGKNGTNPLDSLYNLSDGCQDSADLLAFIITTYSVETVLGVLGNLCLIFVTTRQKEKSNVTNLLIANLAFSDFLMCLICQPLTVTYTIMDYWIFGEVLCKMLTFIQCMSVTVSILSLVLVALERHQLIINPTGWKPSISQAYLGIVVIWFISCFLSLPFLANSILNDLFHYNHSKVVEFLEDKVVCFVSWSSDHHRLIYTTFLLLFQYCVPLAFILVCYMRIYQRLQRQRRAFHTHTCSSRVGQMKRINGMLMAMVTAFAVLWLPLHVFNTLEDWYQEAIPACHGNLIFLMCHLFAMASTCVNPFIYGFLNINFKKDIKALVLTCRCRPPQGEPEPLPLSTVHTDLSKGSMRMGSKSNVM
(13-36)PYY (species not stated, Table 2) (peptide), sequence (P10082 41-64): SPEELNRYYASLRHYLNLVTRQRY

A word on the Ki: it is a dissociation constant, usually derived from enzyme kinetics or from competition with a known ligand. Read a low Ki as tighter binding. As for “(13-36)PYY (species not stated, Table 2) (peptide)”, the Ki in [1] came out at 29 nM.
As to “porcine (3-36)NPY (from UniProt P01304 12-45) (peptide)”, the Ki in assay [2] came to 2.3 nM; in assay [3] it was 2 nM.
In assay [4], “[125I]PYY (radioiodinated peptide YY) (ligand)” gave a receptor density (Bmax) (fmol/mg protein) of 140.
Consider “porcine (18-36)NPY (from UniProt P01304 27-45) (peptide)”, for which the Ki in assay [5] came to 206 nM.
“rat (13-36)NPY (as printed in Table 1) (from UniProt P07808 42-65) (peptide)”: the Ki in assay [6] was 89 nM and 65 nM; in assay [5] it was 86 nM.
One may read the IC50 as the concentration that gives 50% inhibition. A high value points to weaker potency in that assay. (32D-Trp)NPY (peptide): the IC50 in assay [7] amounted to 7 nM.
Molecule “rat/human (Leu31Pro34)(3-36)NPY (from UniProt P01303 31-64) (peptide)” came in with an IC50 in assay [8] of 20 nM.
Turning to “porcine (13-36)NPY (from UniProt P01304 22-45) (peptide)”, the Ki in [2] is 25 nM and 19 nM; in assay [9], 7.9 nM and 7.5 nM. The IC50 in [10] was 38 nM and 41 nM; in [11] it was 40 nM.
For the molecule APLEPVYPGDNATPEQMAQYAADLRRYINMLTRPRY (ligand, UniProt P01298 30-65, looked up, mature; also called hPP) [human pancreatic polypeptide], the IC50 came out at 0.065 nM in [8] and 4.9 nM in [7]. The Ki is 4 nM in assay [5] and 2.5 nM in assay [1]. Further, in [12], the “EC50, forskolin-stimulated adenylate cyclase (cAMP radioimmunoassay), stably transfected 293S cells” value stood at 1 nM.
As to APLEPMYPGDYATHEQRAQYETQLRRYINTLTRPRY (ligand, UniProt P06303 30-65, looked up, mature; also called rPP; rat PP) [rat pancreatic polypeptide], the Ki is 436 nM in assay [13]; 290 nM and 582 nM in assay [14]; 296 nM in [5]; 62 nM in assay [15]; 286 nM in assay [17]; 203 nM in [1]. The IC50 in [8] amounted to 0.071 nM; in assay [7], 325 nM. Besides, in assay [12], the “EC50, forskolin-stimulated adenylate cyclase (cAMP radioimmunoassay), stably transfected 293S cells” value stood at 112 nM. The “EC50, forskolin-stimulated adenylate cyclase (cAMP radioimmunoassay), stably transfected 293 cells” value in assay [16] was more than 1000 nM.
